This note sets out measurements from the supplement of paper PMC12042874.

± gives the uncertainty stated by the source.

The series can be described thus: amyloid nucleation score (Sup35N fusion, yeast selection) (log enrichment); library NNK3; higher = more nucleation; inactive = no reads after selection. In outline: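 Yeast lacking psi expressed peptides of 20 random codons fused to Sup35N, received 100 μM copper sulfate for 24 hours, and were then grown for 7 days at 30°C on medium lacking adenine and uracil. Illumina sequencing of input and output plasmid inserts provided the reads. Nucleation scores are DiMSum log enrichments of output over input, centred on the mode of non-aggregating sequences. Any sequence with under 100 input reads was excluded.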
As for AKSMVWNGGVWYLFQEYARG, the amyloid nucleation score entry is “inactive”.

Turning to TYVKYKRILQQGIYAVVMNV, the amyloid nucleation score result was “inactive”.

Take NYDRYCANIMYTAMCIRLLW: the amyloid nucleation score result was “inactive”.

As for CWFRLYQRNARVVDNFVNHG, the amyloid nucleation score result is “inactive”.

Consider FMTIIKRWDVWNFCRSSGAV, for which the amyloid nucleation score result is “inactive”.

With QFFCFNRLWDWVTFRVIDMS, the amyloid nucleation score result was “inactive”.

Regarding VSLFGCKIMLRMKFGVCLSG, the amyloid nucleation score entry was “inactive”.

For TIESNCVDDLSIGGAGPNLR, the amyloid nucleation score entry was “inactive”.

With RCIGALRTRPSTEGRTSLRI, the amyloid nucleation score entry is “inactive”.

EKTWKDWTHLSGRKRMI: the amyloid nucleation score result was “inactive”.

Regarding SVLFSLYSSLSYV, the amyloid nucleation score was 0.548 ± 0.2.

FIVYLSCPWVRRFIVVMEFM: the amyloid nucleation score entry was “inactive”.

Take FLGAVRLYSPAHTY: the amyloid nucleation score entry is “inactive”.

VKDYNYKFWALPSVPREWVF: the amyloid nucleation score result was “inactive”.

Turning to WRFYGYI, the amyloid nucleation score result is “inactive”.

Consider PGFINFRGVTGKSLTYSILI, for which the amyloid nucleation score entry is “inactive”.

Take GRHRFYSAIKQVQR: the amyloid nucleation score result is “inactive”.

Turning to FPRVTVPLVFSSIQESTSSE, the amyloid nucleation score result is “inactive”.

In the case of MGKETRVA, the amyloid nucleation score entry was “inactive”.

In the case of HINDAYTCVMLYMGLTRWTI, the amyloid nucleation score result was “inactive”.

As for SCDLFSC, the amyloid nucleation score entry was “inactive”.

As to CGCCHVVVNSWW, the amyloid nucleation score was 2.65 ± 0.062.

As for CVPNWVVCRLSIYKF, the amyloid nucleation score entry was “inactive”.

As to RMNMCMWLAWDSPWYIMGY, the amyloid nucleation score result is “inactive”.

In turn, RLWWS came in with an amyloid nucleation score of -0.186 ± 0.98.

Take WVFLNRAQQHSNVLPSQGLV: the amyloid nucleation score result was “inactive”.

In turn, PTGGKKVGIASTFSLSVGTV registered an amyloid nucleation score of -0.08 ± 0.27.

Take SFNSVDTRLWTVPRWERMVN: the amyloid nucleation score entry was “inactive”.

FTYDCECALICINYT displayed an amyloid nucleation score of 0.448 ± 0.27.

On to APLMTYMVMTFMWDSKELPD, for which the amyloid nucleation score entry is “inactive”.

For the substance CMLDKSAIIMTRMECIVLSY, the amyloid nucleation score entry is “inactive”.

With CFYGDFSSILSRKVYDYYIR, the amyloid nucleation score entry is “inactive”.

For the substance RSLFSISAVIEICMLWSV, the amyloid nucleation score entry was “inactive”.

Consider TFQRFQLGHIRFRQVFSWIC, for which the amyloid nucleation score is -0.627 ± 1.4.

In the case of RKVNHFNE, the amyloid nucleation score result is “inactive”.

As to RQILSFWP, the amyloid nucleation score result is “inactive”.

YNMCLRDRVLFVIIDVRIFW returned an amyloid nucleation score of 0.035 ± 0.35.

SVWMGVEPGHYLYQRVLGLV: the amyloid nucleation score entry was “inactive”.

For ELCEKMFRTIFCFKCRVCMN, the amyloid nucleation score entry is “inactive”.

Take FRSNGSIWVRGSETFTIAP: the amyloid nucleation score result is “inactive”.

On to GLLMFLNVCLVVTVSARTYS, for which the amyloid nucleation score entry is “inactive”.

The substance VMVFN returned an amyloid nucleation score of 0.635 ± 0.36.

For the substance CYLCVAAGWSMATPLRGGLA, the amyloid nucleation score entry is “inactive”.

Turning to SWCVDTSIQFPKAFNIVCGF, the amyloid nucleation score result was “inactive”.

VNFCFFFKLLRGRSGYHLSW showed an amyloid nucleation score of 2.15 ± 0.09.

Consider LSSCMWDGPFFNCRVMKLSG, for which the amyloid nucleation score entry is “inactive”.

As for DSICYHAFYMEEGGS, the amyloid nucleation score entry is “inactive”.

GDRRER showed an amyloid nucleation score of 0.811 ± 0.16.

Regarding RGQRVSSVMRRTQVGDWNTP, the amyloid nucleation score result was “inactive”.

In the case of IHCLLLDRVTNLFLTMQAG, the amyloid nucleation score result was “inactive”.

For the substance YRDRIVNHIVGLLGIGS, the amyloid nucleation score is 1.16 ± 0.11.

As to ALIHFGIEVKRYICWMQNLV, the amyloid nucleation score entry was “inactive”.

Regarding NFITRWCGFSGSA, the amyloid nucleation score worked out at 0.608 ± 0.2.

On to HQGFE, for which the amyloid nucleation score entry was “inactive”.

On to ATAPYDTVCRLYCLSWPPRS, for which the amyloid nucleation score entry is “inactive”.

YYCEFGLFELKQTYCRLFWG: the amyloid nucleation score entry was “inactive”.

For the substance RRMPLWEVGFSQASLTRQ, the amyloid nucleation score entry is “inactive”.

For CIFYDSLVDWDHHYSHKGWH, the amyloid nucleation score result was “inactive”.

As for CSGFRVNSSTVIGYLSILLK, the amyloid nucleation score entry was “inactive”.

With TKYRPCYNIVYSMFED, the amyloid nucleation score result is “inactive”.

Consider GYTVAKVNFNGWNRL, for which the amyloid nucleation score was 0.453 ± 0.35.

As to KSQMCNMMRRFYLRCIDLRL, the amyloid nucleation score result is “inactive”.

Regarding HWIHGRR, the amyloid nucleation score entry is “inactive”.

In the case of WFVRIIQLIT, the amyloid nucleation score result is “inactive”.

For the substance RCGKPVGRTYGLGISIEKAR, the amyloid nucleation score result is “inactive”.

As to SLASRHIGHLLISFLLGYGA, the amyloid nucleation score entry was “inactive”.

In turn, LNCGSAFRDVFTVMALNTRV displayed an amyloid nucleation score of -0.14 ± 0.88.

With AHGHISCLLTYTAYWYCCV, the amyloid nucleation score amounted to 0.502 ± 0.19.

On to GKLSNH, for which the amyloid nucleation score result is “inactive”.

Take VRMGVNLGNKTLNTWESSCD: the amyloid nucleation score entry was “inactive”.

For SCFGECCI, the amyloid nucleation score result is “inactive”.

Take TSESAIAVRWSVFSPWPLGF: the amyloid nucleation score came out at 0.643 ± 0.15.

On to RLVVNQHSPDKP, for which the amyloid nucleation score result is “inactive”.

Consider VSFSSCTWSMQEERMLVSWG, for which the amyloid nucleation score entry is “inactive”.

For FARFSIAFMH, the amyloid nucleation score is 0.231 ± 0.9.

On to YRGIKFTYKPGLLGQFHRED, for which the amyloid nucleation score result was “inactive”.

For the substance FDLFFACFPSRETGLKSCKT, the amyloid nucleation score entry was “inactive”.

Consider IKIMHLSQPMDSMSLLHHG, for which the amyloid nucleation score result is “inactive”.

Consider YQRGVRFRSHWMRSGKWDHF, for which the amyloid nucleation score entry is “inactive”.

KVVVTIRTVCRKKVDVICID returned an amyloid nucleation score of 0.071 ± 0.72.

SWVCCF: the amyloid nucleation score entry was “inactive”.

For the substance RTWSAKGYDNIRDVGLNSES, the amyloid nucleation score entry is “inactive”.

Substance SMIYRLRSWVQYCDSQC registered an amyloid nucleation score of 0.344 ± 0.21.

With FDVRCLWYCQK, the amyloid nucleation score came out at 1.33 ± 0.17.

On to LNRAPTAQLSGDCRVGVQAT, for which the amyloid nucleation score result was “inactive”.

Turning to YFTYGRQCMVVLDCLVDRRG, the amyloid nucleation score entry was “inactive”.

As for WVIRELTWITWIVLADLS, the amyloid nucleation score entry was “inactive”.

On to LLSLIT, for which the amyloid nucleation score result was “inactive”.

TLWFQPDFTHVRRWYGLGLR: the amyloid nucleation score result is “inactive”.

Consider YIVRDNEAYRKYGSANESGC, for which the amyloid nucleation score result is “inactive”.

Regarding TTRYHF, the amyloid nucleation score result was “inactive”.

In the case of RLIWVDLALMFMFMYFLVRQ, the amyloid nucleation score entry was “inactive”.

Turning to WRFRIVR, the amyloid nucleation score entry was “inactive”.

Consider RQLMRSDPAMGTICERY, for which the amyloid nucleation score entry was “inactive”.

In the case of LLIVNWVFRILVYRTTRGLR, the amyloid nucleation score result was “inactive”.

ETYFAQWLNFL: the amyloid nucleation score result is “inactive”.

With YWFGWKGGRSVRRVSWSADW, the amyloid nucleation score worked out at 0.13 ± 0.66.

YAFGGQLFAFVLRNENIFSG displayed an amyloid nucleation score of 1.37 ± 0.085.

With FIRMVGRLKKWRVS, the amyloid nucleation score result is “inactive”.

With NITPRQMWVRWRQCMMGTGL, the amyloid nucleation score entry was “inactive”.

Regarding LLKGFSCFLNR, the amyloid nucleation score result is “inactive”.

For PEFYA, the amyloid nucleation score entry is “inactive”.

Consider SFLARVFT, for which the amyloid nucleation score entry is “inactive”.

For WKYGKLISPFVQDVVSLSIK, the amyloid nucleation score entry is “inactive”.

For the substance WQIWDRVQTRKFHGEFTYMR, the amyloid nucleation score result was “inactive”.

For FIKHVRIKFTWSVSREF, the amyloid nucleation score result is “inactive”.

For SYDVNTDFVLCDYSRDTGSQ, the amyloid nucleation score result was “inactive”.

For the substance YNRFKKLSMA, the amyloid nucleation score result is “inactive”.

The substance STMWYYMLVVIMRSCRAGDR returned an amyloid nucleation score of 0.793 ± 0.17.

CLCSMHLRWRSSNWRGYEHF returned an amyloid nucleation score of 0.474 ± 0.31.

Take CMFNGGDWNHNVRELGRQSS: the amyloid nucleation score entry is “inactive”.

Regarding QSKSYFTL, the amyloid nucleation score result was “inactive”.

For the substance RKLGPSHQWNHRWGFSVRSC, the amyloid nucleation score result is “inactive”.

On to YKYRSLYFSRYIVLYVVGVL, for which the amyloid nucleation score result was “inactive”.

Turning to VSEIFFADVFISWYGISRVL, the amyloid nucleation score result was “inactive”.

In turn, HRHNVGLCCAGDWHLVELGS came in with an amyloid nucleation score of 2.06 ± 0.064.

As to FLSFSFYLVYRRKSVRFQ, the amyloid nucleation score result was “inactive”.

Turning to CCRLDDIRQ, the amyloid nucleation score entry is “inactive”.

Turning to EVLNCSR, the amyloid nucleation score entry was “inactive”.

For YSFCVSVATEQLKHLSSLWH, the amyloid nucleation score result is “inactive”.

For WCRCSFVVLHSVVVCSFGTR, the amyloid nucleation score is -0.074 ± 0.69.

In the case of PVLSYMRMSI, the amyloid nucleation score entry is “inactive”.

For the substance ERIVPA, the amyloid nucleation score result is “inactive”.

Consider SCIRNSLRLNSFSVFFLAFH, for which the amyloid nucleation score entry was “inactive”.

As for VMQHNVGLFNDHKYDSCRAC, the amyloid nucleation score entry is “inactive”.

The substance SSTPIFFLFFKSVQQVFNFP showed an amyloid nucleation score of 0.722 ± 0.18.

Take MLLIVTSCYISAPNAVSPGW: the amyloid nucleation score is -0.563 ± 0.84.

On to LIRCLVRSNVEFNNMGWWSS, for which the amyloid nucleation score entry is “inactive”.

As for ANWIVGC, the amyloid nucleation score entry is “inactive”.

Turning to SGRKR, the amyloid nucleation score result was “inactive”.

The substance ILNISCFYEWYDHTLNSQSV yielded an amyloid nucleation score of -0.203 ± 0.42.

MMWDL: the amyloid nucleation score result was “inactive”.
